In PMC4858977:

Target: T1, RXRα (UniProt P28700)
T1 sequence: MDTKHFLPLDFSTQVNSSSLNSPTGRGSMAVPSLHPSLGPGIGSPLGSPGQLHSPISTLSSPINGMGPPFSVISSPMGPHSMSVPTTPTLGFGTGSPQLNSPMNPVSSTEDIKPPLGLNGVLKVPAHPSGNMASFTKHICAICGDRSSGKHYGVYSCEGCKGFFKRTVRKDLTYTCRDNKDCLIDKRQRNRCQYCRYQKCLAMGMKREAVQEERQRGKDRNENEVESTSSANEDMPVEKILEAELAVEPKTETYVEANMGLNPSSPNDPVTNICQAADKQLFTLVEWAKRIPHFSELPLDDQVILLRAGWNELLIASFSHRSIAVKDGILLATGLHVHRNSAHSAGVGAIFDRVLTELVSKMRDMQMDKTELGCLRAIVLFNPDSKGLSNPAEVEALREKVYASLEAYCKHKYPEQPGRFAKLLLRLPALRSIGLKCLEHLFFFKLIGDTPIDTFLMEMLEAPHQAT
Assay: MITOMI
Conditions: On-chip MITOMI, 1 h equilibration; buffer, salt, pH and temperature not in the material (as ref. 23)

Sequence | Ka
AAACTAGGTCAAAGGTCAAG (double strand) [PPRE A20G] | 1e+09 M⁻¹
AAACTAGGTCAATGGTCAAA (double strand) [PPRE A13T] | 398000 M⁻¹
AAACTAGGTCAAATGTCAAA (double strand) [PPRE G14T] | 5.14e+06 M⁻¹
AAACTAGCTCAAAGGTCAAA (double strand) [PPRE G8C] | 980000 M⁻¹
AAACTAGGTCAAAGGTCAGA (double strand) [PPRE A19G] | 1.1e+07 M⁻¹
AAACTAGGTCAAAGGACAAA (double strand) [PPRE T16A] | 906000 M⁻¹
AAACTAGGTCAAAGGTCATA (double strand) [PPRE A19T] | 3.78e+07 M⁻¹
GAACTAGGTCAAAGGTCAAA (double strand) [PPRE A1G] | 1e+08 M⁻¹
AAACTAGGTTAAAGGTCAAA (double strand) [PPRE C10T] | 1.7e+07 M⁻¹
AAACTAGGTCAAAGGTCAAC (double strand) [PPRE A20C] | 9.97e+08 M⁻¹
AAATTAGGTCAAAGGTCAAA (double strand) [PPRE C4T] | 2.59e+08 M⁻¹
AAACTAGGTCAAGGGTCAAA (double strand) [PPRE A13G] | 1.61e+07 M⁻¹
AAACTAGGTGAAAGGTCAAA (double strand) [PPRE C10G] | 2.66e+07 M⁻¹
AAACTAGGTCAAAGATCAAA (double strand) [PPRE G15A] | 2.73e+06 M⁻¹
AAACTAGGTCCAAGGTCAAA (double strand) [PPRE A11C] | 368000 M⁻¹
AAACTAGGTCAAAAGTCAAA (double strand) [PPRE G14A] | 2.41e+06 M⁻¹
AAACTCGGTCAAAGGTCAAA (double strand) [PPRE A6C] | 8.8e+06 M⁻¹
AAACTAGGTCAAAGGGCAAA (double strand) [PPRE T16G] | 1.33e+07 M⁻¹
AAACCAGGTCAAAGGTCAAA (double strand) [PPRE T5C] | 3.82e+08 M⁻¹

Sequence | Ka
CAACTAGGTCAAAGGTCAAA (double strand) [PPRE A1C] | 1.17e+08 M⁻¹
AAACTAGGCCAAAGGTCAAA (double strand) [PPRE T9C] | 5.86e+06 M⁻¹
AAACTAAGTCAAAGGTCAAA (double strand) [PPRE G7A] | 7.36e+06 M⁻¹
AAGCTAGGTCAAAGGTCAAA (double strand) [PPRE A3G] | 5.27e+07 M⁻¹
AATCTAGGTCAAAGGTCAAA (double strand) [PPRE A3T] | 1.98e+08 M⁻¹
AAACTAGTTCAAAGGTCAAA (double strand) [PPRE G8T] | 2.54e+07 M⁻¹
AAACTAGGTCAAAGTTCAAA (double strand) [PPRE G15T] | 4.44e+07 M⁻¹
AAACTAGGTCAAAGGTAAAA (double strand) [PPRE C17A] | 4.39e+06 M⁻¹
ATACTAGGTCAAAGGTCAAA (double strand) [PPRE A2T] | 1.45e+08 M⁻¹
AAACTACGTCAAAGGTCAAA (double strand) [PPRE G7C] | 6.66e+06 M⁻¹
AAACTAGGTCAAAGGTCAAA (double strand) [PPRE] | 1.98e+08 M⁻¹
AGACTAGGTCAAAGGTCAAA (double strand) [PPRE A2G] | 2.05e+08 M⁻¹
AAACTAGGTCTAAGGTCAAA (double strand) [PPRE A11T] | 802000 M⁻¹
AAACTAGGTCAAAGGTGAAA (double strand) [PPRE C17G] | 1.32e+07 M⁻¹
AAACTAGGTCAAAGGCCAAA (double strand) [PPRE T16C] | 3.59e+06 M⁻¹
AAACTAGGTCAGAGGTCAAA (double strand) [PPRE A12G] | 2.69e+07 M⁻¹
AAACTGGGTCAAAGGTCAAA (double strand) [PPRE A6G] | 1.73e+08 M⁻¹
AAACTAGGTCATAGGTCAAA (double strand) [PPRE A12T] | 4.38e+07 M⁻¹
AAACTAGGTAAAAGGTCAAA (double strand) [PPRE C10A] | 3.42e+06 M⁻¹

Sequence | Ka
AAACTAGGGCAAAGGTCAAA (double strand) [PPRE T9G] | 9.19e+06 M⁻¹
AAACTAGGTCACAGGTCAAA (double strand) [PPRE A12C] | 7.95e+06 M⁻¹
AAACAAGGTCAAAGGTCAAA (double strand) [PPRE T5A] | 7.87e+07 M⁻¹
AAACTATGTCAAAGGTCAAA (double strand) [PPRE G7T] | 9.75e+06 M⁻¹
AAACTAGGTCAAAGGTCACA (double strand) [PPRE A19C] | 1.22e+08 M⁻¹
AAAGTAGGTCAAAGGTCAAA (double strand) [PPRE C4G] | 1.38e+08 M⁻¹
AAACTAGGACAAAGGTCAAA (double strand) [PPRE T9A] | 2.04e+06 M⁻¹
AAACTAGGTCGAAGGTCAAA (double strand) [PPRE A11G] | 5.54e+06 M⁻¹
ACACTAGGTCAAAGGTCAAA (double strand) [PPRE A2C] | 4.33e+07 M⁻¹
AAACTAGGTCAAACGTCAAA (double strand) [PPRE G14C] | 860000 M⁻¹
AACCTAGGTCAAAGGTCAAA (double strand) [PPRE A3C] | 1.25e+08 M⁻¹
AAACTTGGTCAAAGGTCAAA (double strand) [PPRE A6T] | 4.68e+06 M⁻¹
TAACTAGGTCAAAGGTCAAA (double strand) [PPRE A1T] | 1.01e+08 M⁻¹
AAACTAGGTCAAAGCTCAAA (double strand) [PPRE G15C] | 218000 M⁻¹
AAACTAGGTCAACGGTCAAA (double strand) [PPRE A13C] | 1.05e+06 M⁻¹
AAACTAGATCAAAGGTCAAA (double strand) [PPRE G8A] | 4.91e+06 M⁻¹
AAAATAGGTCAAAGGTCAAA (double strand) [PPRE C4A] | 1.64e+08 M⁻¹
AAACTAGGTCAAAGGTCAAT (double strand) [PPRE A20T] | 2.79e+08 M⁻¹
AAACGAGGTCAAAGGTCAAA (double strand) [PPRE T5G] | 9.82e+07 M⁻¹

Target: T2, PPARγ (UniProt P37238)
T2 sequence: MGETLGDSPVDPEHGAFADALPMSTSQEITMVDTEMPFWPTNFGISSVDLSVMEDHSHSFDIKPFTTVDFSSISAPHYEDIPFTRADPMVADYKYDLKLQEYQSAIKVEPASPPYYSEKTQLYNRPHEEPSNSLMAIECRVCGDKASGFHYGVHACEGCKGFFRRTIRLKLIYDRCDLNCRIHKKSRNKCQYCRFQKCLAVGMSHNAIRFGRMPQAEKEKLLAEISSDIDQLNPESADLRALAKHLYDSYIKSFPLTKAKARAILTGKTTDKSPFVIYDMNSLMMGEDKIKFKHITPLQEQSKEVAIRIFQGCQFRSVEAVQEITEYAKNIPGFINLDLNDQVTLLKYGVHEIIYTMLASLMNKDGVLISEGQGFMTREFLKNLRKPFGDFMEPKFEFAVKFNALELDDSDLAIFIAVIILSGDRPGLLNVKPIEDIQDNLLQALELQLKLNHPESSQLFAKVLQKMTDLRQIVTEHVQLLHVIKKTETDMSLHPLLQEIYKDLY
Assay: MITOMI
Conditions: On-chip MITOMI, 1 h equilibration; buffer, salt, pH and temperature not in the material (as ref. 23)

Sequence | Ka
AAACTAGGTCAAAGGTCAAA (double strand) [PPRE] | 2.08e+06 M⁻¹

Target: PPARγ;RXRα (Mus musculus?;Mus musculus?) (UniProt P37238+P28700)
Assay: MITOMI
Conditions: KDoD from cooperative model; On-chip MITOMI, 1 h equilibration; buffer, salt, pH and temperature not in the material (as ref. 23)

Sequence | Ka
AAACTAGGTCAAAGGTCAAA (double strand) [PPRE] | 1.46e+22 M-2
